Measured values: publication PMC12521494
Several values for one entry are separate records, joined by “and”; a condition that tells them apart may be missing. Equal entries are not always repeated.

Molecular target: NbNRC2 (Nicotiana benthamiana)
Experiment: native gel or EMSA

NbNRC2 (receptor)
stoichiometry N: 2 and 4
